We go through two molecules from publication PMC8327961, “Nse5/6 inhibits the Smc5/6 ATPase and modulates DNA substrate binding” (The EMBO Journal, 2021).

The target of series [1] is T1, Smc5/6 core hexamer (Saccharomyces cerevisiae, UniProt Q08204+Q12749).
T1 construct: full-length Smc5, Smc6, Nse1, Nse2, Nse3, Nse4 co-expressed in E. coli Rosetta (DE3); C-terminal 3C-Twin-Strep-tag on Smc6; with Non-structural maintenance of chromosomes element 1; E3 SUMO-protein ligase MMS21; Non-structural maintenance of chromosome element 3; Non-structural maintenance of chromosome element 4
Kind of series: pyruvate kinase/lactate dehydrogenase coupled ATPase assay. In kind it is biochemical. The note with it: Walker B mutation in both Smc5 and Smc6, residue numbers not told; ATPase buffer pH 7.5, 2 mM MgCl2; 25 °C.

Series [2] concerns the target Smc5/6 hexamer (Smc5, Smc6, Nse1, Nse2, Nse3, Nse4) (Saccharomyces cerevisiae, UniProt Q08204;Q12749;Q07913;P38632;Q05541;P43124 1-1093;1-1114;1-336;1-267;1-303;1-402). Kind of series: fluorescence anisotropy; ATPase buffer: 10 mM Hepes-KOH pH 7.5, 150 mM K-OAc, 2 mM MgCl2, 20% glycerol; anisotropy at 25 C; plasmid pulldown bound at room temperature, high-salt buffer. Conditions: protein: recombinant; tags: C-terminal 3C-Twin-Strep on Smc6; copies: 1;1;1;1;1;1; blunt.

Series [3] has as its target Smc5/6 octamer (hexamer plus Nse5/6) (Saccharomyces cerevisiae, UniProt Q08204;Q12749;Q07913;P38632;Q05541;P43124;Q03718;P40026 …). The description is as above. The note with it: protein: recombinant; tags: C-terminal 3C-Twin-Strep on Smc6; reconstitution with Nse5 C-terminal AviTag-3C-Twin-Strep; copies: 1;1;1;1;1;1;1;1; blunt.
Series [4] deals with T2, Nse5/6 dimer (Saccharomyces cerevisiae, UniProt Q03718;P40026 1-556;1-464).
T2 sequence 1: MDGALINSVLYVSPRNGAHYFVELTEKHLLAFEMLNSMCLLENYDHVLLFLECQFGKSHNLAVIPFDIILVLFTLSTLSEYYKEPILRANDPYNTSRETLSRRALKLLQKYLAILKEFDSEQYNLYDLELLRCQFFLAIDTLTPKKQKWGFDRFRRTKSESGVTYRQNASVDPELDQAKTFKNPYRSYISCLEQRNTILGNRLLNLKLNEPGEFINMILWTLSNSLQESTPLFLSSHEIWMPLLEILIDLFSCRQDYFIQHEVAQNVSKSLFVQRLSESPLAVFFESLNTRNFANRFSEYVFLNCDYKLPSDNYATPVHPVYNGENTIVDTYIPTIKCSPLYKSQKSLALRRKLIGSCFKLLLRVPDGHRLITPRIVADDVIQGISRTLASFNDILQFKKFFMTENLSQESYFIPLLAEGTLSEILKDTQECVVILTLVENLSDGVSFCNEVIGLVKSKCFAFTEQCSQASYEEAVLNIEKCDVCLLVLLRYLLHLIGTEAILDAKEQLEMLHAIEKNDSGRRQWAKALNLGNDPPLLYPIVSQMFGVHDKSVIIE
T2 sequence 2: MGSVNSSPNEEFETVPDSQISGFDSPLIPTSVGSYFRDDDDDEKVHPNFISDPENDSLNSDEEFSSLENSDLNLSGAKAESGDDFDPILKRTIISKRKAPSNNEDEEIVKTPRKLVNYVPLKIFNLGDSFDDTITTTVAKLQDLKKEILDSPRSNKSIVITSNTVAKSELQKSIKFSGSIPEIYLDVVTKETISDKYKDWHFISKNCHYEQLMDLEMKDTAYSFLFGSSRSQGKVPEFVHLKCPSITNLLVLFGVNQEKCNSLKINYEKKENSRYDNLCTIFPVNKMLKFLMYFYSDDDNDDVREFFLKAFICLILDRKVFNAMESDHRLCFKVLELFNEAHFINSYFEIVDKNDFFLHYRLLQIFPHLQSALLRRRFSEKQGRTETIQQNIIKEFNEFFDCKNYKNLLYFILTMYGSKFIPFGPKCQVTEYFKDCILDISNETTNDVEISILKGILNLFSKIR
Described as above. Conditions: protein: recombinant; copies: 1;1; blunt.

T1 sequence (Q08204 whole entry): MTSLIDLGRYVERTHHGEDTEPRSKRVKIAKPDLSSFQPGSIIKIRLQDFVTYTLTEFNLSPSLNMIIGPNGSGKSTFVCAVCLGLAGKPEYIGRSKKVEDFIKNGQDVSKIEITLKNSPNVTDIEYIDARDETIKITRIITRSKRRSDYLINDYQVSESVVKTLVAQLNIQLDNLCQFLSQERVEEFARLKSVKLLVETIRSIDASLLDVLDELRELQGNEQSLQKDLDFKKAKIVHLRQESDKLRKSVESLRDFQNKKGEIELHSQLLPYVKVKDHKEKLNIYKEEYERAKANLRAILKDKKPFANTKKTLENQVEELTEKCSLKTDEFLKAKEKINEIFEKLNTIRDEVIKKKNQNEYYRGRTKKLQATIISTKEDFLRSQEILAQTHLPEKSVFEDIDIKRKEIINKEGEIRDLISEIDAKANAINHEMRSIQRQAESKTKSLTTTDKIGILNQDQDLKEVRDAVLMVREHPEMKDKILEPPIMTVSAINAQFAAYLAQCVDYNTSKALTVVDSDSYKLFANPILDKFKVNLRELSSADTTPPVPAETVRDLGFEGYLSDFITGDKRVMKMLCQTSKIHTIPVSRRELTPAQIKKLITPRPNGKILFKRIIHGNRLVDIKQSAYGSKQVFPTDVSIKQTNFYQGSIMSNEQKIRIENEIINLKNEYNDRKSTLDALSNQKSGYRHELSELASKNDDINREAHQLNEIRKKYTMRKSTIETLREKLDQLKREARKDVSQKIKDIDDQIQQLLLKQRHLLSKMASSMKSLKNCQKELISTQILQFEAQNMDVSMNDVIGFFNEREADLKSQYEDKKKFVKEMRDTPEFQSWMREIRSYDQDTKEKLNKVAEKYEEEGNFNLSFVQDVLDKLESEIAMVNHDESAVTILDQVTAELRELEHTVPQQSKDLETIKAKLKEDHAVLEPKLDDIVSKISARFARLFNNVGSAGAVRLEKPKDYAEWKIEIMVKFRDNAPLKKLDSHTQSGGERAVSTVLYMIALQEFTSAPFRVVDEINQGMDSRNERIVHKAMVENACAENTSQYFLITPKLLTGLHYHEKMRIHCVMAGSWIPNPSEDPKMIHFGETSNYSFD
T1 sequence (Q12749 whole entry): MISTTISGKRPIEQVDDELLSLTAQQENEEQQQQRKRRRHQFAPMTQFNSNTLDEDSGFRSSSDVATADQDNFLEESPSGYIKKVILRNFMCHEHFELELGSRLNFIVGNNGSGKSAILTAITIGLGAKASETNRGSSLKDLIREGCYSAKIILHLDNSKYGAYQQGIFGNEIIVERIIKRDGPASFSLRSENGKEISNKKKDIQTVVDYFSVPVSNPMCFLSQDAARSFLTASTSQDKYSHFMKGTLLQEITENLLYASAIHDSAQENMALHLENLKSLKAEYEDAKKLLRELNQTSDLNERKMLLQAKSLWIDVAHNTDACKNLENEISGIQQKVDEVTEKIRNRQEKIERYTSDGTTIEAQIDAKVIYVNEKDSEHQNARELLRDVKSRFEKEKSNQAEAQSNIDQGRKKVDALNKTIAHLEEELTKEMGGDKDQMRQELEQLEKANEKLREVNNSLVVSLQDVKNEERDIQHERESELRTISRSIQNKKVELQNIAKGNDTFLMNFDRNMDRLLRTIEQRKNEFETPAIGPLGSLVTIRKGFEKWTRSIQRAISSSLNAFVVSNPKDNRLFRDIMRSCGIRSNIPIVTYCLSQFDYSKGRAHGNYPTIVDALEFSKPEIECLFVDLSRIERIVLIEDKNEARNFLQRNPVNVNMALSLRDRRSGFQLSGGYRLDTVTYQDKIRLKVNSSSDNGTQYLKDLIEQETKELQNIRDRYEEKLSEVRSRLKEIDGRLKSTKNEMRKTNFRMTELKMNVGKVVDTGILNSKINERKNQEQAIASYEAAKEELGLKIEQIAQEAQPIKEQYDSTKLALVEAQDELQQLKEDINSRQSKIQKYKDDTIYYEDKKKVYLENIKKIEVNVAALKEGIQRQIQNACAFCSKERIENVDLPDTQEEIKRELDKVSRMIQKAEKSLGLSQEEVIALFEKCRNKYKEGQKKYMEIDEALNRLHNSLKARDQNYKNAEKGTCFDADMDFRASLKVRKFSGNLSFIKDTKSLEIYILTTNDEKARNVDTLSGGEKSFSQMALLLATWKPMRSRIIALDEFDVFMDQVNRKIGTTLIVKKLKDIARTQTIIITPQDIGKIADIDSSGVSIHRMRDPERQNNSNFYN
T1 sequence (Q07913 whole entry partner): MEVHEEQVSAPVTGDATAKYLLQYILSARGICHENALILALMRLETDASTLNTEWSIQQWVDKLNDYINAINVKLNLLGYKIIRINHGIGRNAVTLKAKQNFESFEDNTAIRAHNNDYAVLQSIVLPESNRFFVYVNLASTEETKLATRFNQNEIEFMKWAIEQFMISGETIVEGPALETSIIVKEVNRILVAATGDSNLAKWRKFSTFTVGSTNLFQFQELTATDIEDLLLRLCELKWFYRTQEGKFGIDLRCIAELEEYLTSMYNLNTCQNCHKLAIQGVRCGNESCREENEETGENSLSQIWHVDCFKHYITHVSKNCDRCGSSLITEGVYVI
T1 sequence (P38632 whole entry partner): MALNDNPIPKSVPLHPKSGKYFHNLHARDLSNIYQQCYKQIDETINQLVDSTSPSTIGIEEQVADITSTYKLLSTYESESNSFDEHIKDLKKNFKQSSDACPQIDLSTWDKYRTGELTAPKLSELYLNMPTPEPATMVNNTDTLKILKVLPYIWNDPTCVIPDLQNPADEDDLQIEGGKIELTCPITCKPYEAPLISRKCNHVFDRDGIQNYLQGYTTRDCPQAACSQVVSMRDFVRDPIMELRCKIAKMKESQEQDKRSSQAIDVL
T1 sequence (Q05541 whole entry partner): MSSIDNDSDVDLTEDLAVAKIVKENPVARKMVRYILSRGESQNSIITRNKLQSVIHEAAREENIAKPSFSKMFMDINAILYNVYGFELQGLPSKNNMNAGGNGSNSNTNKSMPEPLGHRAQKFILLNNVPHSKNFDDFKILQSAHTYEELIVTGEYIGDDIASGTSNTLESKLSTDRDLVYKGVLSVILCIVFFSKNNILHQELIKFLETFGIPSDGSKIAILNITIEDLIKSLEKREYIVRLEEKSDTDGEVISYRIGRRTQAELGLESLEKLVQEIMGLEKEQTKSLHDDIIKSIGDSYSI
T1 sequence (P43124 whole entry partner): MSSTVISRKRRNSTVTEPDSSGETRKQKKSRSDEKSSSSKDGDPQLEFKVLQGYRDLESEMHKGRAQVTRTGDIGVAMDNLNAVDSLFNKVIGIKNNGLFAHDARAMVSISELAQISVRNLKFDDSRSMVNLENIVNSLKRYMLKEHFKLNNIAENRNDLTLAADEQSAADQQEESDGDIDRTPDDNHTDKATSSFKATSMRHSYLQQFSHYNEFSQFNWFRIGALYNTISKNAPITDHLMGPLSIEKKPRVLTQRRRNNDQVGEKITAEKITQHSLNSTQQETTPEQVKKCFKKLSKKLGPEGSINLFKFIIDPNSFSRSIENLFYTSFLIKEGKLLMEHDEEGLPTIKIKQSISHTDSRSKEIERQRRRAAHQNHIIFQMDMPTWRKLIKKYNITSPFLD

As to `Nc1ncnc2c1ncn2[C@@H]1O[C@H](COP(=O)(O)OP(=O)(O)OP(=O)(O)O)[C@@H](O)[C@H]1O` [ATP], in series [1], the “no noticeable ATP hydrolysis” value is “did not display noticeable ATP hydrolysis activity”.

B1: 40bpDNA (STI699/STI700) (dsDNA)
DNA 1: TTAGTTGTTCGTAGTGCTCGTCTGGCTCTGGATTACCCGC
DNA 2: GCGGGTAATCCAGAGCCAGACGAGCACTACGAACAACTAA
The Kd is the free concentration of one partner at which half of the binding sites on the other are occupied at equilibrium, for simple one-to-one binding. Regarding B1, the Kd is around 150 nM in series [2] and around 100 nM in series [3]. For the same molecule, the binding result in series [4] is “no binding”.
